Reference: paper PMC314469, “Protein Interaction Networks by Proteome Peptide Scanning” (PLoS Biology, 2004)

B1: YOL008W 79-91 (peptide)
chain: SFVDKRNPVDNKP
B2: YKR002W 264-276 (peptide)
chain: SEWNWPQPVILKP
B3: YBR245C 789-801 (peptide)
chain: RSSTPSHPRMPKP
B4: YIL115C 491-503 (peptide)
chain: SEQDATDPASAKP
B5: YHL024W 604-617 (peptide)
chain: RRSSYGYNEVPPKP
B6: YKL185W 433-446 (peptide)
chain: SGKMRSRSSSPVRP
B7: YKL157W 770-782 (peptide)
chain: SGNKEAIPALIKP
B8: YOR168W 585-598 (peptide)
chain: SDDYEELATIPYRP
B9: YGL191W 8-20 (peptide)
chain: RYASSLPPNALKP
B10: YDL142C 9-22 (peptide)
chain: SSSALLRRTIPKRP
B11: YKL097C 59-72 (peptide)
chain: SSSLPLPKLRPPRP
B12: YMR068W 271-284 (peptide)
chain: RSSITNPVFNPRKP
B13: YDR246W 151-164 (peptide)
chain: RQPTIATTDKPDRP
B14: YFR032C 54-67 (peptide)
chain: RRFSKRHNSNPRKP
B15: YDR176W 652-664 (peptide)
chain: RWINKIGPLFDKP
B16: YGR097W 8-20 (peptide)
chain: RPSQTLTPMGNKP
B17: YER032W 653-666 (peptide)
chain: SETKSVPSIEPFKP
B18: YDR174W 96-109 (peptide)
chain: RRKIERDPNAPKKP
B19: YBL080C 12-25 (peptide)
chain: RTKAIHSHGAPFRP
B20: YIL074C 41-53 (peptide)
chain: RVSITKQPKALKP
B21: YMR241W 239-252 (peptide)
chain: RVEMQSKKEDPNRP
B22: YGL064C 428-441 (peptide)
chain: RSEKIMPFLSPPRP
B23: YPR079W 40-53 (peptide)
chain: SHKQKRTLANPDKP
B24: YOR098C 775-787 (peptide)
chain: SASSTPIPVLGKP
B25: YPL066W 175-187 (peptide)
chain: RYTYLPSPSYFRP
B26: YPR182W 5-17 (peptide)
chain: SDISAMQPVNPKP
B27: YCR033W 218-231 (peptide)
chain: RSNKWRSIGTPSRP
B28: YDL025C 107-120 (peptide)
chain: SAKKAPIDYSPSRP
B29: YBL007C 612-625 (peptide)
chain: RSRLQEKELPPIKP
B30: YER169W 626-639 (peptide)
chain: SDTNDIKTPHPERP
B31: YMR231W 646-659 (peptide)
chain: SHEHEEPTYHPPKP
B32: YDR024W 78-90 (peptide)
chain: RPTQVSRPLGGRP
B33: YHR185C 60-72 (peptide)
chain: RRQHEQWPAYEKP
B34: YLR430W 1001-1014 (peptide)
chain: SANAKLHRTKPVKP
B35: YNR049C 146-159 (peptide)
chain: SATPRRASSRPTRP
B36: YMR086W 669-681 (peptide)
chain: SAIPLGTPEKGKP
B37: YPR104C 727-740 (peptide)
chain: RQPIVQTPHVPDRP
B38: YGL061C 212-224 (peptide)
chain: RVRKTHVPASKRP
B39: YNL278W 803-816 (peptide)
chain: RSRHEVPKRSPEKP
B40: YPR112C 621-633 (peptide)
chain: SAKEEENPVEVKP
B41: YDR186C 539-551 (peptide)
chain: RSLSLMDPALQKP
B42: YPL181W 404-417 (peptide)
chain: RRSADIGTDKPVKP
B43: YBL034C 808-820 (peptide)
chain: RQIMIKSPNDFKP
B44: YDL106C 66-79 (peptide)
chain: SASSNASDSGPQRP
B45: YGR074W 130-142 (peptide)
chain: RRRDFGAPANKRP
B46: YOR205C 26-39 (peptide)
chain: SSSIKLQDQDPSKP
B47: YMR014W 341-353 (peptide)
chain: SDSEENEPRRKKP
B48: YNL034W 543-555 (peptide)
chain: SAPQLTVPEPSKP
B49: YPR117W 1516-1529 (peptide)
chain: SGLDGILEDEPSRP
B50: YCR066W 152-164 (peptide)
chain: RSMTDILPLSSKP
B51: YDL240W 56-69 (peptide)
chain: SSFTSQDSQKPLKP
B52: YML035C 237-249 (peptide)
chain: SDTKTVVPVTNKP
B53: YKL089W 336-349 (peptide)
chain: RRKKQKKKPTPTRP
B54: YKL077W 65-77 (peptide)
chain: SEKPEETPNPLKP
B55: YLR164W 23-36 (peptide)
chain: SFTIPFLPKIPQKP
B56: YBR118W 394-407 (peptide)
chain: SGDAALVKFVPSKP
B57: YPR140W 364-376 (peptide)
chain: RRMQKFLPPEGKP
B58: YBR026C 64-77 (peptide)
chain: SDINQLQGVYPSRP

Biological target: T1, Abp1 SH3 (ABP1_YEAST), P15891
T1 chain: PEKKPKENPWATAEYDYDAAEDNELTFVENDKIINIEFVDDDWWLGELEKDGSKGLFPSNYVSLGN
Test: SPOT array
B1 showed a normalised SPOT signal, Boehringer light units (BLU); mean over the file's lines of this peptide of 92.9. With B2 the normalised SPOT signal, Boehringer light units (BLU); mean over the file's lines of this peptide was 54.4. Work on B3 yielded a normalised SPOT signal, Boehringer light units (BLU); mean over the file's lines of this peptide of 1930. Binder B4 has a normalised SPOT signal, Boehringer light units (BLU); mean over the file's lines of this peptide of 49.3. B5 gave a normalised SPOT signal, Boehringer light units (BLU); mean over the file's lines of this peptide of 188. In the case of B6, the normalised SPOT signal, Boehringer light units (BLU); mean over the file's lines of this peptide is reported as 560. B7 gave a normalised SPOT signal, Boehringer light units (BLU); mean over the file's lines of this peptide of 82.8. Binder B8 has a normalised SPOT signal, Boehringer light units (BLU); mean over the file's lines of this peptide of 45.7. B9 was tested, and the normalised SPOT signal, Boehringer light units (BLU); mean over the file's lines of this peptide was 219. B10 showed a normalised SPOT signal, Boehringer light units (BLU); mean over the file's lines of this peptide of 253. In the case of B11, the normalised SPOT signal, Boehringer light units (BLU); mean over the file's lines of this peptide is reported as 5200. B12 was tested, and the normalised SPOT signal, Boehringer light units (BLU); mean over the file's lines of this peptide was 527. Work on B13 yielded a normalised SPOT signal, Boehringer light units (BLU); mean over the file's lines of this peptide of 83.4. With B14 the normalised SPOT signal, Boehringer light units (BLU); mean over the file's lines of this peptide was 89. With B15 the normalised SPOT signal, Boehringer light units (BLU); mean over the file's lines of this peptide was 287. For B16, the normalised SPOT signal, Boehringer light units (BLU); mean over the file's lines of this peptide was 4080. In the case of B17, the normalised SPOT signal, Boehringer light units (BLU); mean over the file's lines of this peptide is reported as 62.5. With B18 the normalised SPOT signal, Boehringer light units (BLU); mean over the file's lines of this peptide was 66.1. Work on B19 yielded a normalised SPOT signal, Boehringer light units (BLU); mean over the file's lines of this peptide of 49.4. For B20, the normalised SPOT signal, Boehringer light units (BLU); mean over the file's lines of this peptide was 244. In the case of B21, the normalised SPOT signal, Boehringer light units (BLU); mean over the file's lines of this peptide is reported as 1200. B22 showed a normalised SPOT signal, Boehringer light units (BLU); mean over the file's lines of this peptide of 701. B23 gave a normalised SPOT signal, Boehringer light units (BLU); mean over the file's lines of this peptide of 164. Work on B24 yielded a normalised SPOT signal, Boehringer light units (BLU); mean over the file's lines of this peptide of 100. Binder B25 has a normalised SPOT signal, Boehringer light units (BLU); mean over the file's lines of this peptide of 276. With B26 the normalised SPOT signal, Boehringer light units (BLU); mean over the file's lines of this peptide was 124. Work on B27 yielded a normalised SPOT signal, Boehringer light units (BLU); mean over the file's lines of this peptide of 148. Binder B28 has a normalised SPOT signal, Boehringer light units (BLU); mean over the file's lines of this peptide of 0. Work on B29 yielded a normalised SPOT signal, Boehringer light units (BLU); mean over the file's lines of this peptide of 88.5. For B30, the normalised SPOT signal, Boehringer light units (BLU); mean over the file's lines of this peptide was 114. B31 was tested, and the normalised SPOT signal, Boehringer light units (BLU); mean over the file's lines of this peptide was 9.2. B32 was tested, and the normalised SPOT signal, Boehringer light units (BLU); mean over the file's lines of this peptide was 3290. Binder B33 has a normalised SPOT signal, Boehringer light units (BLU); mean over the file's lines of this peptide of 300. B34 was tested, and the normalised SPOT signal, Boehringer light units (BLU); mean over the file's lines of this peptide was 138. With B35 the normalised SPOT signal, Boehringer light units (BLU); mean over the file's lines of this peptide was 88.9. B36 was tested, and the normalised SPOT signal, Boehringer light units (BLU); mean over the file's lines of this peptide was 105. B37 gave a normalised SPOT signal, Boehringer light units (BLU); mean over the file's lines of this peptide of 56.7. Work on B38 yielded a normalised SPOT signal, Boehringer light units (BLU); mean over the file's lines of this peptide of 78.6. B39 showed a normalised SPOT signal, Boehringer light units (BLU); mean over the file's lines of this peptide of 76.3. In the case of B40, the normalised SPOT signal, Boehringer light units (BLU); mean over the file's lines of this peptide is reported as 63.3. B41 was tested, and the normalised SPOT signal, Boehringer light units (BLU); mean over the file's lines of this peptide was 431. Work on B42 yielded a normalised SPOT signal, Boehringer light units (BLU); mean over the file's lines of this peptide of 121. B43 gave a normalised SPOT signal, Boehringer light units (BLU); mean over the file's lines of this peptide of 2000. B44 was tested, and the normalised SPOT signal, Boehringer light units (BLU); mean over the file's lines of this peptide was 172. With B45 the normalised SPOT signal, Boehringer light units (BLU); mean over the file's lines of this peptide was 71.9. B46 was tested, and the normalised SPOT signal, Boehringer light units (BLU); mean over the file's lines of this peptide was 46. B47 was tested, and the normalised SPOT signal, Boehringer light units (BLU); mean over the file's lines of this peptide was 93.2. With B48 the normalised SPOT signal, Boehringer light units (BLU); mean over the file's lines of this peptide was 52.2. B49 showed a normalised SPOT signal, Boehringer light units (BLU); mean over the file's lines of this peptide of 30.6. Binder B50 has a normalised SPOT signal, Boehringer light units (BLU); mean over the file's lines of this peptide of 5410. Binder B51 has a normalised SPOT signal, Boehringer light units (BLU); mean over the file's lines of this peptide of 113. Work on B52 yielded a normalised SPOT signal, Boehringer light units (BLU); mean over the file's lines of this peptide of 28.6. Binder B53 has a normalised SPOT signal, Boehringer light units (BLU); mean over the file's lines of this peptide of 33.3. For B54, the normalised SPOT signal, Boehringer light units (BLU); mean over the file's lines of this peptide was 85.4. Work on B55 yielded a normalised SPOT signal, Boehringer light units (BLU); mean over the file's lines of this peptide of 22800. B56 was tested, and the normalised SPOT signal, Boehringer light units (BLU); mean over the file's lines of this peptide was 52.8. Binder B57 has a normalised SPOT signal, Boehringer light units (BLU); mean over the file's lines of this peptide of 615. B58 showed a normalised SPOT signal, Boehringer light units (BLU); mean over the file's lines of this peptide of 98.7.
